2 molecules from article PMC9119445, “Ustilago maydis telomere protein Pot1 harbors an extra N-terminal OB fold and regulates homology-directed DNA repair factors in a dichotomous and context-dependent manner” can be followed below.

Data set [1] addresses Ustilago maydis Rad51 (U. maydis) (UniProt Q99133).
The next data set has as its target UmPot1 OB12 (OB1-OB2) (Ustilago maydis, UniProt A0A0D1CUA9 351-700). The experiment in a line: EMSA; 25 mM HEPES-KOH pH 7.5, 5% glycerol, 3 mM MgCl2, 0.1 mM EDTA, 1 mM DTT, 0.5 ug/ul BSA, 1-10 nM probe, 22 C, 15 min; 6% native PAGE in 1x TBE. Conditions: protein: recombinant; tags: C-terminal FLAG; His6-SUMO removed by ULP1; label: 5'-32P. (In EMSA bound probe runs differently from free probe, usually more slowly.)

A further data set concerns the target UmPot1 OB3 (Ustilago maydis, UniProt A0A0D1CUA9 701-1050). The description is as above. The conditions noted are these: protein: recombinant; tags: C-terminal FLAG; His6-SUMO removed by ULP1; label: 5'-32P.
Data set [2] concerns the target UmPot1 N-terminal fragment (OB-N) (Ustilago maydis, UniProt A0A0D1CUA9 1-350). The data set is described as above. The conditions noted are these: protein: recombinant; tags: C-terminal FLAG; His6-SUMO removed by ULP1; label: 5'-32P.

Chain of Ustilago maydis Rad51 (U. maydis) (Q99133 whole entry): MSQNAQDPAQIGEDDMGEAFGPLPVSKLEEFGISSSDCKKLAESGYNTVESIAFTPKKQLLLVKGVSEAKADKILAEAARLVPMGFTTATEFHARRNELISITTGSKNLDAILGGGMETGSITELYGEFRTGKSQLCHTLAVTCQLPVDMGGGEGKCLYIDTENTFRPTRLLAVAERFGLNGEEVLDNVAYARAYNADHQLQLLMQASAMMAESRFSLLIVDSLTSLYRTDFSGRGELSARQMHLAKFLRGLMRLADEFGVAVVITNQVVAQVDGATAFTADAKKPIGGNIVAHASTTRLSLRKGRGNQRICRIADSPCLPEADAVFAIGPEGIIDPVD

Molecule “Ustilago maydis Pot1 with a C-terminal FLAG tag (Pot1-FLAG) (natural protein)” gave a strand exchange activity of Rad51 (oligonucleotide-based assay, 70-mer ssDNA and labeled 39-mer dsDNA), stimulation by Pot1 in data set [1] of 2 fold.
As to TTAGGGTTAGGGTTAGGGTTAGGG (ssDNA) [TTAGGG4 (G4)], the values for the binding result (with UmPot1 OB12 (OB1-OB2); with UmPot1 OB3; in data set [2]) were “binds”, “no binding” and “no binding”, respectively.
